From the RNAGym collection of RNA variant scans (doi:10.7554/elife.80360) come the findings set out here.

B1: Hairpin Ribozyme (parent)
chain: GUCCUCUUUCACGUGCGCGUGAAAGAGAGAAGUGAACCAGAGAAACACACGUUGUGGUAUAUUACCUGGUA

Variants of B1 are the subject of the data set. As to the kind of experiment: self-cleavage, relative activity (ratio to wild type); higher = more cleavage; co-transcriptional.
On to C16G U20C, for which the self-cleavage turned out to be 0.868.

Consider G15C G54A, for which the self-cleavage was 0.532.

On to G15C G54C, for which the self-cleavage came to 0.404.

Regarding G15U C18U, the self-cleavage was 1.03.

For G15U C18A, the self-cleavage worked out at 1.07.

Consider C16A A44C, for which the self-cleavage was determined as 0.229.

Turning to C16U A39U, the self-cleavage is 0.312.

Regarding C16U A39C, the self-cleavage was found to be 0.641.

As for C16U A45G, the self-cleavage was found to be 0.135.

Turning to C16U A45U, the self-cleavage was 0.128.

Turning to G17A G21U, the self-cleavage was determined as 0.901.

With G15U A41G, the self-cleavage turned out to be 0.943.

For the variant G15U U52A, the self-cleavage was found to be 0.863.

For G15U U52G, the self-cleavage is 0.94.

For C16A A31U, the self-cleavage amounted to 0.0142.

For G17C U58G, the self-cleavage is 0.432.

As for G17C A28C, the self-cleavage worked out at 0.347.

As to G17C A28G, the self-cleavage turned out to be 0.957.

As for G17C A28U, the self-cleavage turned out to be 0.28.

For G17A A61G, the self-cleavage turned out to be 0.107.

As to G17C U63C, the self-cleavage turned out to be 0.276.

Consider G15U C66A, for which the self-cleavage turned out to be 0.367.

On to C16G A28C, for which the self-cleavage was 0.289.

For G15U G19A, the self-cleavage is 0.968.

Turning to G15U G54C, the self-cleavage turned out to be 0.385.

Consider C16G G29C, for which the self-cleavage was 0.141.

As for C16U A30C, the self-cleavage stood at 0.0996.

For the variant G15C U20C, the self-cleavage was found to be 0.997.

For G15C U20G, the self-cleavage is 0.828.

Take C16G C48A: the self-cleavage stood at 0.0451.

In the case of C16G C48G, the self-cleavage stood at 0.19.

Turning to G17U A26U, the self-cleavage was determined as 0.632.

Turning to G15U A22U, the self-cleavage came to 0.996.

As to G17C A41U, the self-cleavage was determined as 1.27.

Regarding C16A U67C, the self-cleavage was 0.24.

With C16A U67A, the self-cleavage was 0.246.

On to G15C U52G, for which the self-cleavage turned out to be 0.812.

For G17A G54C, the self-cleavage was 0.429.

On to G17A G54U, for which the self-cleavage amounted to 0.667.

Regarding G17A A30C, the self-cleavage was found to be 0.231.

Turning to C16G C66U, the self-cleavage amounted to 0.422.

Take C16A G42U: the self-cleavage stood at 0.276.

For C16A A22G, the self-cleavage is 0.617.

For C16U A49U, the self-cleavage amounted to 0.281.

Consider G17A U33G, for which the self-cleavage worked out at 0.0712.

Consider G17A U33A, for which the self-cleavage was 0.12.

With G17C G42U, the self-cleavage is 0.134.

For the variant G17C G42C, the self-cleavage worked out at 0.306.

Turning to C16U U70G, the self-cleavage amounted to 0.722.

With C16G G56A, the self-cleavage stood at 0.073.

In the case of G17A C65G, the self-cleavage was 0.485.

Turning to C16G A31G, the self-cleavage stood at 0.431.

Regarding C16G U55C, the self-cleavage turned out to be 0.239.

As for C16G A23C, the self-cleavage turned out to be 0.763.

For the variant C16A G69A, the self-cleavage was 0.308.

Take C16U G27C: the self-cleavage worked out at 0.202.

In the case of C16A A61U, the self-cleavage was determined as 0.226.

On to G17A G19U, for which the self-cleavage was found to be 1.02.

Consider G17A C48U, for which the self-cleavage was determined as 0.176.

With G15U U60C, the self-cleavage was found to be 1.01.

Regarding G17C U67G, the self-cleavage was found to be 0.161.

As for C16A C48U, the self-cleavage turned out to be 0.0945.

Turning to C16G G25C, the self-cleavage turned out to be 0.302.

As for C16G G25U, the self-cleavage was 0.547.

As for G17C A59U, the self-cleavage is 0.122.

For C16G A41U, the self-cleavage worked out at 1.35.

Consider C16G A41G, for which the self-cleavage was determined as 0.593.

C16G G27C: the self-cleavage was 0.222.

C16G G27A: the self-cleavage was 0.37.

As for C16G G27U, the self-cleavage turned out to be 0.106.

Consider C16A A71U, for which the self-cleavage was 0.776.

Consider G17C A24C, for which the self-cleavage came to 0.614.

As to C16G A30G, the self-cleavage worked out at 0.0703.

C16G A30C: the self-cleavage amounted to 0.177.

Take G15U G56C: the self-cleavage was 0.195.

With G15U C38A, the self-cleavage was 0.124.

Take G15U C38U: the self-cleavage was 0.662.

As for G17C A36U, the self-cleavage came out at 0.356.

For the variant G17C G54U, the self-cleavage turned out to be 0.417.

As for G15C U63C, the self-cleavage turned out to be 0.13.

With C16A G19C, the self-cleavage amounted to 0.736.

Consider C16U A31U, for which the self-cleavage amounted to 0.211.

With C16U A31G, the self-cleavage came to 0.742.

In the case of C16U A59G, the self-cleavage was found to be 0.109.

Regarding C16U A59C, the self-cleavage is 0.17.

Regarding G17C C18U, the self-cleavage is 0.902.

Turning to C16G U63C, the self-cleavage is 0.204.

As to G17A C37U, the self-cleavage was determined as 0.463.

Take G17C G19U: the self-cleavage came to 0.502.

For the variant C16U U52G, the self-cleavage is 0.761.

Regarding G17C C46U, the self-cleavage came out at 0.113.

Consider G17C G68C, for which the self-cleavage was 0.238.

C16U U62C: the self-cleavage worked out at 0.384.

Turning to C16U U62G, the self-cleavage was found to be 0.107.

On to G17C G69C, for which the self-cleavage came to 0.124.

C16G A49U: the self-cleavage worked out at 0.221.

Turning to C16G G19A, the self-cleavage is 0.646.

Turning to G15U G69U, the self-cleavage came out at 0.176.

G17C U60A: the self-cleavage was 0.582.

As for G17C A64C, the self-cleavage came out at 0.186.

For G15U G29C, the self-cleavage came to 0.125.

In the case of G15C U53C, the self-cleavage turned out to be 1.02.

In the case of G15C U53G, the self-cleavage amounted to 0.695.

On to G17C U55C, for which the self-cleavage was 0.216.

In the case of C16G U58C, the self-cleavage was 1.06.

In the case of G17U A23G, the self-cleavage worked out at 0.632.

Consider G17U A23C, for which the self-cleavage was 0.898.

Regarding G15C U70C, the self-cleavage was 0.965.

Regarding G15C U70G, the self-cleavage stood at 0.946.

Regarding C16A A59C, the self-cleavage was determined as 0.213.

On to C16G A59G, for which the self-cleavage came out at 0.17.

As for G17A A39U, the self-cleavage is 0.44.

For G17C G21A, the self-cleavage is 0.618.

Take G17C G21C: the self-cleavage was 0.494.

As to G15U A28C, the self-cleavage was found to be 0.619.

As to G15U A28G, the self-cleavage amounted to 1.16.

In the case of C16U A61C, the self-cleavage was 0.254.

Take C16U U67A: the self-cleavage stood at 0.325.

Consider G15U G25C, for which the self-cleavage was found to be 0.705.

As for G17A G27C, the self-cleavage worked out at 0.074.

Turning to G17A A26U, the self-cleavage worked out at 0.768.

In the case of C16G A26C, the self-cleavage was found to be 0.388.

Take C16G A26G: the self-cleavage is 0.766.

In the case of C16A G68U, the self-cleavage came to 0.181.

With C16A G68C, the self-cleavage was determined as 0.176.

For the variant C16U G69C, the self-cleavage worked out at 0.396.

Take C16U G17A: the self-cleavage was 1.19.

Take C16G C37A: the self-cleavage was determined as 0.244.

As for G15U U20A, the self-cleavage amounted to 0.941.

As to G15U U20G, the self-cleavage came to 0.853.

Turning to G17A C66G, the self-cleavage was 0.268.

As to C16A A41G, the self-cleavage stood at 0.818.

For C16A A41U, the self-cleavage came out at 1.3.

As to C16U G29C, the self-cleavage worked out at 0.1.

Consider C16U G56A, for which the self-cleavage was found to be 0.208.

C16G U52G: the self-cleavage came out at 0.443.

On to C16G U52C, for which the self-cleavage was 0.718.

For the variant G15U A45U, the self-cleavage stood at 0.221.

C16G U53C: the self-cleavage was found to be 0.949.

With G17A G69U, the self-cleavage came to 0.203.

With G17C U52A, the self-cleavage was 0.816.

For the variant G17C U52G, the self-cleavage was determined as 0.821.

For the variant G15U A39U, the self-cleavage came out at 0.544.

C16G G51A: the self-cleavage amounted to 0.798.

Regarding G17A G51U, the self-cleavage was 1.06.

With C16A A23U, the self-cleavage came to 0.727.

Regarding G15U C65A, the self-cleavage stood at 1.15.

As to C16G C65U, the self-cleavage came to 0.167.

Regarding C16G C65A, the self-cleavage was found to be 0.976.

Turning to G17A A43G, the self-cleavage is 0.0835.

Turning to G15U A24U, the self-cleavage was found to be 0.957.

As for G17U A24U, the self-cleavage came to 0.865.

For the variant G17A G40C, the self-cleavage came out at 0.153.

With C16U U60C, the self-cleavage was found to be 1.26.

Consider C16G G32U, for which the self-cleavage came to 0.18.

For the variant C16U A22U, the self-cleavage is 0.972.

With C16U A22G, the self-cleavage stood at 1.

On to G17C A45U, for which the self-cleavage stood at 0.12.

For C16U A35U, the self-cleavage turned out to be 0.916.

Take G17A U52A: the self-cleavage stood at 0.912.

G17A U20C: the self-cleavage was determined as 1.13.

Regarding C16A A49U, the self-cleavage amounted to 0.206.

For the variant C16A A49G, the self-cleavage was 0.389.

G15U C50G: the self-cleavage came out at 0.353.

As to C16U G57A, the self-cleavage is 0.272.

Turning to C16A U70G, the self-cleavage worked out at 0.461.

Take G17A G25U: the self-cleavage was 0.494.
